Where two headings read alike, the source gives them in different places.
Tests used:
Assay in all cases: X-ray crystallography
[1] = molecular target: T1, DNA polymerase beta (pol β), wild-type (human, UniProt P06746 1-335)
[2] = molecular target: T1, DNA polymerase beta (pol β), wild-type; remark: listed apart in the source
[3] = molecular target: T1, DNA polymerase beta (pol β), wild-type; remark: listed apart in the source

B1: 1-nt gapped DNA, templating G (dsDNA)
DNA 1: CCGACGGCGCATCAGC
DNA 2: GCTGATGCGC
DNA 3: GTCGC
modifications: 5'-phosphate on downstream strand
[1]
  binding result: binds

B2: 1-nt gapped DNA, templating C (dsDNA)
DNA 1: CCGACCGCGCATCAGC
DNA 2: GCTGATGCGC
DNA 3: GTCGC
modifications: 5'-phosphate on downstream strand
[2]
  binding result: binds

B3: 1-nt gapped DNA, templating A (dsDNA)
DNA 1: CCGACAGCGCATCAGC
DNA 2: GCTGATGCGC
DNA 3: GTCGC
modifications: 5'-phosphate on downstream strand
[3]
  binding result: binds

— paper PMC6494084
